Laboratory results as given in patent publication US20260191907A1 (INSTITUT CURIE, published 2026).

B1: L-B5, VCR-loaded fluorescent liposomes decorated with nanobody B5 (other)
VHH: EVQLQASGGGFVQPGGSLRLSCAASGRTSWLTTMGWFRQAPGKEREFVSAISSFSSKQGYYADSVKGRFTISRDNSKNTVYLQMNSLRAEDTATYYCAYASYPRHQGNGRWKDFVEYWGQGTQVTVSS
modifications: C-terminal cysteine coupled to DSPE-PEG-maleimide on the liposomal surface
notes: Liposome as for L-A8; also called FGFR4-targeted liposomes; not shown: C-terminal Myc/6xHis-tag and an additional cysteine
B2: L-B1, VCR-loaded fluorescent liposomes decorated with nanobody B1 (other)
VHH: EVQLQASGGGFVQPGGSLRLSCAASGYTSRSSAMGWFRQAPGKEREFVSAISDLTGYPYYYADSVKGRFTISRDNSKNTVYLQMNSLRAEDTATYYCAAYQDDKWTYGSQHGKYWGQGTQVTVSS
modifications: C-terminal cysteine coupled to DSPE-PEG-maleimide on the liposomal surface
notes: as for B1
B3: L-F8, VCR-loaded fluorescent liposomes decorated with nanobody F8 (other)
VHH: EVQLVESGGGLVQPGGSLRLSCAASGTGYALDDMGWVRQAPGKGLEWVSAISDDESMADYYADSVKGRFTISRDNSKNTVYLQMNSLRAEDTAVYYCASYKEYKYQSGHHYFAYRGQGTLVTVSS
modifications: C-terminal cysteine coupled to DSPE-PEG-maleimide on the liposomal surface
notes: as for B1
B4: L-A8, VCR-loaded fluorescent liposomes decorated with nanobody A8 (other)
VHH: EVQLQASGGGFVQPGGSLRLSCAASGRTYSRDTMGWFRQAPGKEREFVSAISSRHSHTTYYADSVKGRFTISRDNSKNTVYLQMNSLRAEDTATYYCAEWDVFDMHYALPPMWYWGQGTQVTVSS
modifications: C-terminal cysteine coupled to DSPE-PEG-maleimide on the liposomal surface
notes: Liposome of egg sphingomyelin, cholesterol, PEG-ceramide, DSPE-PEG-maleimide and DiR, loaded with vincristine; also called FGFR4-targeted liposomes; not shown: C-terminal Myc/6xHis-tag and an additional cysteine

target: T1, FGFR4 expressed on the surface of RMS cells (Rh4-FR4 wt, Rh30) (human, UniProt P22455 22-802); test: flow cytometry of DiR fluorescence, liposomes at 0.5 mM lipid on Rh4-FR4 wt cells; reference L-mCh
T1 construct: Endogenous FGFR4 of the rhabdomyosarcoma cell lines; The whole entry includes the signal peptide; also called cell-surface FGFR4; Rh4-FR4 wt cells
Description: (§1) Samples were analyzed after two washes by flow cytometry on a MACSQuant® cytometer (Miltenyi) and results were analyzed with FlowJo™ software (BD Biosciences, France). Phages displaying anti-mCherry nanobodies were used as negative control²⁴ and as positive control we used an anti-FGFR4 antibody (BT53, kindly provided by J. Khan lab, NCI, Bethesda, MD). For binding test of recombinant nanobodies, cells were detached with Accutase® (Stemcell Technologies) and washed with PBS. All following steps were performed on ice: 4×10⁵ cells were incubated with nanobody concentrations of 30 μg/ml for 1 h, washed once with PBS and incubated for an additional 30 min with anti His-tag FITC labeled antibody (LS-C57341, LSBioscience, diluted 1:10). The cells were washed once more with PBS and analyzed. Targeting liposomes were added at 0.5 mM final lipid concentration to cells in 96-well plates and incubated for 2 h at 37° C. and 5% CO₂. The cells were washed twice with PBS and detached with Accutase®.
(§2) We next wanted to test if nanobodies on the liposomal surface can still bind to FGFR4 expressing RMS cells. Rh4-FR4 wt and Rh4-FR4ko cells were incubated for 2 h with FGFR4-targeted liposomes or mCherry-targeted control liposomes under normal cell culture conditions. DiR fluorescence was subsequently analyzed by flow cytometry (FIG. 5).

T1 sequence (P22455 22-802 limits assumed): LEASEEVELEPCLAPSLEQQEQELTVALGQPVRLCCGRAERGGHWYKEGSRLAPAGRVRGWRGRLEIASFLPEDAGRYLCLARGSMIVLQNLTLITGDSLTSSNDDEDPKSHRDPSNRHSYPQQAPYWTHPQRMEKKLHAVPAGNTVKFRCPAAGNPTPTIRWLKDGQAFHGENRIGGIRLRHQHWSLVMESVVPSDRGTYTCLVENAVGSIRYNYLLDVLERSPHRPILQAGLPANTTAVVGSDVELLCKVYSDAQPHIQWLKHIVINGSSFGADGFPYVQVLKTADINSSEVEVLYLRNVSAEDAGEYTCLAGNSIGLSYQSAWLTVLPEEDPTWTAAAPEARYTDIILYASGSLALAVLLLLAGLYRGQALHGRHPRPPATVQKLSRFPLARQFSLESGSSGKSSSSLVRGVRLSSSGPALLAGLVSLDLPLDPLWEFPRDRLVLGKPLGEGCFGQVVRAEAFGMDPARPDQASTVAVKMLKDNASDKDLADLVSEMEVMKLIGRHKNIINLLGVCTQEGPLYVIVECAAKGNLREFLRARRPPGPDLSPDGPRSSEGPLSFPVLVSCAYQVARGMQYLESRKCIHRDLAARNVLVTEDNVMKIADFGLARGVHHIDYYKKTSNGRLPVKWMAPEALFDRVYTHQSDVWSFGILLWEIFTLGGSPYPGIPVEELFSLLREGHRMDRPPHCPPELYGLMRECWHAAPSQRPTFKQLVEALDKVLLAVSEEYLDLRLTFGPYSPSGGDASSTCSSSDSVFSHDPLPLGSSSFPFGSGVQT

Row | Binder | fold increase of MFI over L-mCh [fold]
1 | B1 | 34
2 | B2 | 12
3 | B3 | 28
4 | B4 | 6

target: T1, FGFR4 expressed on the surface of RMS …; test: flow cytometry of DiR fluorescence, liposomes at 0.5 mM lipid on Rh4-FR4 wt cells, 2 h at 37 °C
Description: as §1, with “Binding validation of selected phages, recombinant nanobodies and decorated liposomes was performed on Rh4-FR4 wt and Rh4-FR4ko cells. Specificity of selected phage clones binding to FGFR4 was determined by flow cytometry in 96-well plates (Becton Dickinson). Cell surface staining of Rh4-FR4 wt or Rh4-FR4ko cells was performed on ice in PBS supplemented with 1% FBS. 80 μL phages+20 μL PBS/1% milk were incubated on 1×10⁵ cells for 1 h on ice. […] Samples” for “Samples”
as §2

Row | Binder | MFI [MFI]
5 | B1 | 1700
6 | B2 | 600
7 | B3 | 1400
8 | B4 | 300
